Values belong to the molecule of their own block, whether it stands above or below them. Bridge positions count the residues as written; N and C are the ends. Square brackets hold non-standard residues; d marks the D form. Ends that are not written are not given here. Peptide text beside a SMILES is read from it. I, II: the chains in the order shown. * marks the point of attachment. 5‑TAMRA = CN(C)c1ccc2c(-c3ccc(C(=O)*)cc3C(=O)[O-])c3ccc(N(C)C)cc3[o+]c2c1; n3 = azido unnatural amino acid, 3 CH2 in side chain; Lys(N3) = [N-]=[N+]=NCCCC[C@H](N)C(=O)O; Orn(N3) = [N-]=[N+]=NCCC[C@H](N)C(=O)O; Aha = [N-]=[N+]=NCC[C@H](N)C(=O)O; m3c = not defined here; m3 = not defined here; m4 = not defined here; m5 = not defined here; Ahx = NCCCCCC(=O)O
What was measured:
TNKS2 ARC4 = target: T1, TNKS2 ARC4 (Homo sapiens, UniProt Q9H2K2); assay: Competitive fluorescence polarization, TNKS2 ARC4; format: binding; settings: unlabeled peptides; tracer T-pep1 bound to ARC4; read-out: Kd TNKS2 ARC4 (Competition FP)
T1 construct: GST (cleaved yes); made in house; host or cells: E. coli C41(DE3)
T1 sequence (Q9H2K2 488-649): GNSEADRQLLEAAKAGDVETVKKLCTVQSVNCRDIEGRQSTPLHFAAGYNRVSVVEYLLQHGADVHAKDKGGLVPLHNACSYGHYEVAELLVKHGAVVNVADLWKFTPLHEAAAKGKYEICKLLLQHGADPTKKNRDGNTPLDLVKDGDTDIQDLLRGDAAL
Experimental: Fluorescence polarization (FP) assays were performed in 96-well half area black microplates (Corning) on a CLARIOstar microplate reader (BMG labtech) using excitation filter 540–20 nm, dichroic mirror LP 566 nm, and emission filter 590–20 nm. All peptides were dissolved in water as stock solutions. For direct FP assays, the stock concentrations of the TAMRA-labeled peptides were determined based on the 5-TAMRA absorbance at 556 nm (extinction coefficient ε = 89,000 M^–1 cm^–1) measured on a NanoDrop 2000 (Thermo Scientific) and verified by amino acid analysis (Department of Biochemistry, University of Cambridge). […] Data were analyzed on GraphPad Prism 5.0, and the dissociation constant, Kd, was determined using the following equation assuming the ratio between the concentration of the bound and that of the total TAMRA-labeled peptide is proportional to the fluorescence polarization [drawing 1] where FP is the fluorescence polarization, B is the minimum FP, T is the maximum FP, L0 is the total concentration of TAMRA-labeled peptide, P0 is the total concentration of protein, and Kd is the dissociation constant.
For the competition FP assays, the stock concentrations of the unlabeled macrocyclized peptides or the Axin1 fragments were determined by amino acid analysis. […]

TNKS2 ARC4 (488–649) [1] = target: T2, TNKS2 ARC4 (488–649) (human, UniProt Q9H2K2 488-649); assay: FP
T2 chain: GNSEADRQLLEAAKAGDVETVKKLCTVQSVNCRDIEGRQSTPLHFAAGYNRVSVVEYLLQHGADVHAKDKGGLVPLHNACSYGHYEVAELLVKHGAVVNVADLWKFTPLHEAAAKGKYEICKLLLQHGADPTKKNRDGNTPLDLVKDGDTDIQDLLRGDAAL

[2] = target: T3, human tankyrase 2 ankyrin repeat cluster 4 (TNKS2 ARC4, residues 488-649) (human, UniProt Q9H2K2 488-649); assay: fluorescence polarisation; direct: TNKS2 ARC4 or TNKS1 ARC2-3 diluted 2-fold serially (40-0 uM, 50 uL) and mixed with TAMRA-labeled peptide (20 nM, 50 uL); 50 mM HEPES pH 7.5, 300 mM NaCl, 2 mM DTT, 0.05% Tween 20; 30 min, 25 C; settings: both partners purified
T3 sequence (looked up): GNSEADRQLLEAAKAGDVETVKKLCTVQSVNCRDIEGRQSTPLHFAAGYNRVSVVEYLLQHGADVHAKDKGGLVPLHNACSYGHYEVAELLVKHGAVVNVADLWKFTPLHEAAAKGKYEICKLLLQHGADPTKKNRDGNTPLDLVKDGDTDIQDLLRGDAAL

human Axin1_1–80 = human Axin1_1–80 (human, UniProt O15169 1-80); assay: ITC; TNKS2 ARC4 (160–280 μM) or TNKS1 ARC2–3 (60–150 μM) titrated into the cell holding peptide (5–15 μM) or Axin1 fragment (8–12 μM); PBS, 0.5 mM TCEP; 25 °C; one-site model; settings: both partners purified
[3] = target: T3, human tankyrase 2 ankyrin repeat …; assay: fluorescence polarisation; direct: TNKS2 ARC4 or TNKS1 ARC2-3 diluted 2-fold serially (40-0 uM, 50 uL) and mixed with TAMRA-labeled peptide (20 nM, 50 uL); 50 mM HEPES pH 7.5, 300 mM NaCl, 2 mM DTT, 0.05% Tween 20; 30 min, 25 C; settings: both partners purified; remark: listed apart in the source
[4] = target: T4, human tankyrase 1 ankyrin repeat clusters 2-3 (TNKS1 ARC2-3, residues 315-662) (human, UniProt O95271 315-662); assay: as above; settings: both partners purified
T4 sequence (looked up): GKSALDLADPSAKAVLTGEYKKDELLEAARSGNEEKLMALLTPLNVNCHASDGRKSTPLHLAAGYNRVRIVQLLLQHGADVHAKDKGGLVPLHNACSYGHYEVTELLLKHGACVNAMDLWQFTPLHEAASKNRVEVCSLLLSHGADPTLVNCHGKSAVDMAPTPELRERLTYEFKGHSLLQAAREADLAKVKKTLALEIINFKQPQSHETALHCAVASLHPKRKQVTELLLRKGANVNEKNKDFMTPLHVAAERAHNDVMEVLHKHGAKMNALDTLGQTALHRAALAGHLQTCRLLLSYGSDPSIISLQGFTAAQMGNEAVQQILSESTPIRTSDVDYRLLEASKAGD

[5] = target: T3, human tankyrase 2 ankyrin repeat …; assay: fluorescence polarisation; competition: unlabeled peptide or Axin1 fragment diluted 2-fold serially against TAMRA-labeled pep1 (20 nM) with TNKS2 ARC4 (3 uM); PBS, 0.05% Tween 20; 30 min, 25 C; settings: both partners purified
[6] = target: T3, human tankyrase 2 ankyrin repeat …; assay: ITC; TNKS2 ARC4 (160-280 uM) or TNKS1 ARC2-3 (60-150 uM) titrated into the cell with unlabeled peptide (5-15 uM) or Axin1 fragment (8-12 uM); PBS, 0.5 mM TCEP; 25 C; one-site model; stoichiometry = TNKS per peptide or Axin1; settings: both partners purified
[7] = target: T4, human tankyrase 1 ankyrin repeat …; assay: as above; settings: both partners purified
TNKS1 ARC2-3 = target: T5, TNKS1 ARC2-3 (Homo sapiens, UniProt O95271); assay: Isothermal titration calorimetry, TNKS1 ARC2-3; format: binding; settings: unlabeled peptides and Axin proteins
T5 construct: His6 (cleaved yes); made in house; host or cells: E. coli C41(DE3)
T5 sequence (O95271 315-662): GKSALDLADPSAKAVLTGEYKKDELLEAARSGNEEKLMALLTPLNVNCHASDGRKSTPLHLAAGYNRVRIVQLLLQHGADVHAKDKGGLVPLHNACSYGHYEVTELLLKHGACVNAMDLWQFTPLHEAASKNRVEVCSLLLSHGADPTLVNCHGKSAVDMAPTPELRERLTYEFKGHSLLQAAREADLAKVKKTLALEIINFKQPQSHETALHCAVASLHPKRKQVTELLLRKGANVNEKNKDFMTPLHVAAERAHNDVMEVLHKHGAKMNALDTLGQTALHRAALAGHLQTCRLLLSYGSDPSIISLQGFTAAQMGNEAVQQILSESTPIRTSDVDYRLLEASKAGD
Experimental: All ITC experiments were performed on a MicroCal iTC200 (GE Healthcare) at 25 °C. TNKS2 ARC4 (488–649), TNKS1 ARC2–3 (315–662), and Axin1 fragments were dialyzed overnight in PBS and 0.5 mM TCEP. Unlabeled peptides were used in the experiments. The peptide was diluted from the stock solution using the same dialysis buffer, and the effect of buffer dilution was accounted for when preparing TNKS samples. TNKS2 ARC4 (160–280 μM) or TNKS1 ARC2–3 (60–150 μM) was titrated into the sample cell containing the peptide (5–15 μM) or Axin1 fragments (8–12 μM) with an initial injection of 0.2 μL over 0.4 s followed by 19 injections of 2 μL over 4 s with a spacing of 60 s, except for TNKS2 ARC4 and Axin1 fragments for which the spacing was 70 s. Control experiments were performed using the same settings as above except that the cell was filled with dialysis buffer. Data were fitted with nonlinear regression using a one-site binding model from Origin 7.0 (MicroCal, Inc.).[90]

TNKS2 ARC4 (488–649) [8] = target: T6, TNKS2 ARC4 (488–649) (human, UniProt Q9H2K2 488-649); assay: pull-down; GST-Axin1 1–80 on glutathione beads incubated with TNKS2 ARC4 (89 μM), washed, then incubated 0.5 h at room temperature with unlabeled peptide (0–200 μM); wash buffer 50 mM Tris·HCl pH 8.0, 500 mM NaCl, 2 mM DTT; SDS-PAGE, Coomassie, densitometry; settings: both partners purified
T6 sequence (looked up): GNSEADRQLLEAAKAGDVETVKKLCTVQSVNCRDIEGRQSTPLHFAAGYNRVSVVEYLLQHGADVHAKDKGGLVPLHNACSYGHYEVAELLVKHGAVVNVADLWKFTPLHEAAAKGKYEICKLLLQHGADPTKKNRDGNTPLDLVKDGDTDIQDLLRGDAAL

B2: T-cp4n2m3c-R6 (peptide)
chain 1: {5‑TAMRA-Ahx}-RE[Aha]GDG[Aha]E
chain 2: RRRRRR
modifications: triazole I:3-I:7 via m3c; not fully specified (N-terminus); reading uncertain; also: chain 2 N-terminus conjugated to m3c linker of chain 1
Kd [3]: 0.95 ± 0.02 µM

Molecule: {5‑TAMRA-Ahx}-RE[Aha]GDG[Aha]E (triazole 3-7 via m5; reading uncertain) [T-cp4n2m5]
Kd (TNKS2 ARC4 (488–649) [1]): 1.29 µM
Kd [2]: 1.3 ± 0.04 µM

Molecule: {5‑TAMRA-Ahx}-RE[Orn(N3)]GDG[Orn(N3)]E (bridge 3-7; not fully specified (bridges)) [T-cp4n3m4]
Kd (TNKS2 ARC4 (488–649) [1]): 1.11 µM
Kd [2]: 1.1 ± 0.03 µM

Molecule: {5‑TAMRA-Ahx}-RE[Aha]GDG[Aha]E (triazole 3-7 via m4; reading uncertain) [T-cp4n2m4]
Kd (TNKS2 ARC4 (488–649) [1]): 0.81 µM
Kd [4]: 0.29 ± 0.008 µM

B5: T-cp4n2m3c-Antp (peptide)
chain 1: REXGDGXE
chain 2: RQIKIWFQNRRMKWKK
modifications: 5-TAMRA-Ahx on the N-terminus; X3 and X7 (n2, 2 CH2): azido unnatural amino acids cross-linked through two triazoles by linker m3c, which carries the second chain | two Ahx spacers between the m3c linker and the N-terminus
Kd [3]: 0.49 ± 0.02 µM

Now from value to molecule:

Kd (TNKS2 ARC4): 2.6 ± 0.1 µM
Molecule: CC(=O)N[C@@H](CCCNC(=N)N)C(=O)N[C@@H](CCC(=O)O)C(=O)N[C@@H](CCCCN=[N+]=[N-])C(=O)NCC(=O)N[C@@H](CC(=O)O)C(=O)NCC(=O)N[C@@H](CCC(=O)O)C(=O)N[C@@H](CCCCN=[N+]=[N-])C(N)=O [cp5n4] (Ac-RE[Lys(N3)]GDGE[Lys(N3)]-NH2)

Kd (TNKS2 ARC4): 1.4 ± 0.1 µM
Molecule: CC(=O)N[C@@H](CCCNC(=N)N)C(=O)N[C@@H](CCC(=O)O)C(=O)N[C@@H](CCCCN=[N+]=[N-])C(=O)NCC(=O)N[C@@H](CC(=O)O)C(=O)NCC(=O)N[C@@H](CCCCN=[N+]=[N-])C(=O)N[C@@H](CCC(=O)O)C(N)=O [cp4n4] (Ac-RE[Lys(N3)]GDG[Lys(N3)]E-NH2)

Kd (TNKS2 ARC4 (488–649) [1]): 1.91 µM
Kd [2]: 1.9 ± 0.05 µM
Molecule: {5‑TAMRA-Ahx}-RE[n3]GDG[n3]E (bridge 3-7; not fully specified (bridges)) [T-cp4n3m5]

stoichiometry N (human Axin1_1–80): 2
B1: TNKS1 ARC2–3 (315–662) (domain or fragment, human, UniProt O95271 315-662, looked up)
chain: GKSALDLADPSAKAVLTGEYKKDELLEAARSGNEEKLMALLTPLNVNCHASDGRKSTPLHLAAGYNRVRIVQLLLQHGADVHAKDKGGLVPLHNACSYGHYEVTELLLKHGACVNAMDLWQFTPLHEAASKNRVEVCSLLLSHGADPTLVNCHGKSAVDMAPTPELRERLTYEFKGHSLLQAAREADLAKVKKTLALEIINFKQPQSHETALHCAVASLHPKRKQVTELLLRKGANVNEKNKDFMTPLHVAAERAHNDVMEVLHKHGAKMNALDTLGQTALHRAALAGHLQTCRLLLSYGSDPSIISLQGFTAAQMGNEAVQQILSESTPIRTSDVDYRLLEASKAGD

Kd [5]: 2.78 ± 0.22 µM
Kd [6]: 2.62 ± 0.36 µM
stoichiometry N [6]: 1 ± 0.03
Kd [7]: 1.59 ± 0.09 µM
stoichiometry N [7]: 2.1 ± 0.02
B3: human Axin1 residues 1-80 (domain or fragment, UniProt O15169 1-80, looked up)
chain: MNIQEQGFPLDLGASFTEDAPRPPVPGEEGELVSTDPRPASYSFCSGKGVGIKGETSTATPRRSDLDLGYEPEGSASPTP

Stoichiometry (ITC), TNKS1 ARC2-3 (TNKS1 ARC2-3): two
B4: hAxin1_1-80: fragment of human Axin1, residues 1–80, containing both TNKS-binding motifs (protein)
chain: MNIQEQGFPLDLGASFTEDAPRPPVPGEEGELVSTDPRPASYSFCSGKGVGIKGETSTATPRRSDLDLGYEPEGSASPTP
modifications: left off: GST, end not stated, cleaved

IC50 (TNKS2 ARC4 (488–649) [8]): ~20 µM
Molecule: Ac-RE[Aha]GDG[Aha]E (triazole 3-7 via m3; reading uncertain) [cp4n2m3]
